Legend:
Settings in all cases: protein: recombinant; tags: GST; label: fluorescein (RNA labelling mix)
SX35 chimera [1] = biological target: T1, SX35 chimera (Drosophila melanogaster / Sciara …, UniProt P19339 1-123+=R+Q86QM9:73-287, internal_change); experiment: EMSA; apparent Kd, Hill fit; error 95% CI; 20 mM Hepes pH 8.0, 0.1 M KCl, 0.5 mM EDTA, 1 mM DTT, 0.05% NP40, 20% glycerol, 3 µg yeast tRNA; 5 min on ice, then 10 min at room temperature with RNA; 5% native PAGE, 0.25x TBE
T1 sequence: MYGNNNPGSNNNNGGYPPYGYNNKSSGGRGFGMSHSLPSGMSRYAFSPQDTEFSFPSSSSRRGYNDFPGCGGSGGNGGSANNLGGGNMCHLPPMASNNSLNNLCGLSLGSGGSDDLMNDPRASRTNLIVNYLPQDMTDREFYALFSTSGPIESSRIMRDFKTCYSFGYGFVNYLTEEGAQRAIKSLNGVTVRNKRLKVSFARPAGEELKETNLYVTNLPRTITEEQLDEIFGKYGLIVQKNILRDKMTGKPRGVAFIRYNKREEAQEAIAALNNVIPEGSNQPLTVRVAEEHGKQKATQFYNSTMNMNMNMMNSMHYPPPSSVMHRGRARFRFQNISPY

SX28 chimera [2] = biological target: T2, SX28 chimera (Drosophila melanogaster / Sciara …, UniProt Q86QM9 1-240+=LE+P19339:293-354, internal_change); experiment: as above
T2 sequence: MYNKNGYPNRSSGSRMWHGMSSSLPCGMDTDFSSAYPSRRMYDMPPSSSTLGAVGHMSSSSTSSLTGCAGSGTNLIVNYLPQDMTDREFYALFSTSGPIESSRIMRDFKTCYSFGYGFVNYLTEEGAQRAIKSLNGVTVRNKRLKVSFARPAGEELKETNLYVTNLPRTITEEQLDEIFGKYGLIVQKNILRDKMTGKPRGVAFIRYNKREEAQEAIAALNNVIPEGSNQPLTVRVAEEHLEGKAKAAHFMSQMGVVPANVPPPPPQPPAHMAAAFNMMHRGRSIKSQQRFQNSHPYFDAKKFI

SX64 chimera [3] = biological target: T3, SX64 chimera (Drosophila melanogaster / Sciara …, UniProt P19339 1-292+=LE+Q86QM9:241-287, internal_change); experiment: as above
T3 sequence: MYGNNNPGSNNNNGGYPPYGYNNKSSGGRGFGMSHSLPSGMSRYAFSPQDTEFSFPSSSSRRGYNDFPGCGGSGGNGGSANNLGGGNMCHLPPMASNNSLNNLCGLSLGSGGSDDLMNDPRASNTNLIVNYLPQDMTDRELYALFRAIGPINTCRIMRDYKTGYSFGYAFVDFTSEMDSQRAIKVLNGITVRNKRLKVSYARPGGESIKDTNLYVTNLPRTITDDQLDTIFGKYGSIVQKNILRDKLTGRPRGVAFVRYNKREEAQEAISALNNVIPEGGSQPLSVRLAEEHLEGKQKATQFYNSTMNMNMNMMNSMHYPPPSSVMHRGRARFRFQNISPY

SX17 chimera [4] = biological target: T4, SX17 chimera (Drosophila melanogaster / Sciara …, UniProt Q86QM9 1-71+=R+P19339:125-354, internal_change); experiment: as above
T4 sequence: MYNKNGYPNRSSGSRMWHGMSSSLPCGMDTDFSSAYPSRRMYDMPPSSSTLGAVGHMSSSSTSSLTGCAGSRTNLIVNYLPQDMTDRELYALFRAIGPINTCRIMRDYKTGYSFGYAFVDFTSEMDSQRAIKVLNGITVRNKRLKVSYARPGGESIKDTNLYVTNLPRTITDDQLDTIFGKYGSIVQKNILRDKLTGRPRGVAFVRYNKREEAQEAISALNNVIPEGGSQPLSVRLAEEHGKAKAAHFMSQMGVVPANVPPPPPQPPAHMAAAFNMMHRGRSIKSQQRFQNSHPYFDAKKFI

SX35 chimera [5] = biological target: T1, SX35 chimera; experiment: EMSA; Hill n=1; error 95% CI; 20 mM Hepes pH 8.0, 0.1 M KCl, 0.5 mM EDTA, 1 mM DTT, 0.05% NP40, 20% glycerol, 3 µg yeast tRNA; 5 min on ice, then 10 min at room temperature with RNA; 5% native PAGE, 0.25x TBE
SX28 chimera [6] = biological target: T2, SX28 chimera; experiment: as above
SX64 chimera [7] = biological target: T3, SX64 chimera; experiment: as above
SX17 chimera [8] = biological target: T4, SX17 chimera; experiment: as above

ACAUAUUUUUUUUCACAGC (ssRNA) [single poly(U) SXL site]
Kd (SX35 chimera [1]): 230 ± 40 µM | Kd (SX28 chimera [2]): 230 ± 50 µM | Kd (SX64 chimera [3]): 180 ± 20 µM | Kd (SX17 chimera [4]): 350 ± 50 µM

CAUGAUUAUUUUUUUUUAUUUUUUUUCGGUGA (ssRNA) [double poly(U) SXL site]
Kd (SX35 chimera [5]): 0.9 ± 0.4 µM | Kd (SX28 chimera [6]): 3.8 ± 0.5 µM | Kd (SX64 chimera [7]): 2.3 ± 0.4 µM | Kd (SX17 chimera [8]): 2.4 ± 0.5 µM
